Laboratory results as given in patent publication US7262005.

Molecular target: Fas receptor (UniProt P25445)
Experiment: cell-based or functional assay

Fas receptor, sequence (P25445 26-335 limits assumed): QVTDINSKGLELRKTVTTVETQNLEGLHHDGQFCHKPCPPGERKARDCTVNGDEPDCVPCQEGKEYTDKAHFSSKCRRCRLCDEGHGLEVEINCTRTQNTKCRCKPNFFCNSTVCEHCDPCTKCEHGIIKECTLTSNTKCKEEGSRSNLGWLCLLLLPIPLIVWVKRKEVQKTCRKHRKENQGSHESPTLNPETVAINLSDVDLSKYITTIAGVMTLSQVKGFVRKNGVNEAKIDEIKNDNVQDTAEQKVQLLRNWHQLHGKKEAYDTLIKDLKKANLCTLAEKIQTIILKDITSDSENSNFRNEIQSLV

- 460/530 emission ratio, + αFas/+ chx, Jurkat cells expressing 2XUb-DEVD-Bla, 50 ng/ml anti-Fas IgM for 6 hours (460/530 emission ratio): 0.67
- EC50 of caspase activation in Jurkat cells expressing 2XUb-DEVD-Bla (β-lactamase activity, CCF2 460/530 nm ratio after cycloheximide chase): 11 ng/mL
Substance: CH-11 anti-Fas IgM (antibody)
